Experiment [1] deals with PR97 chimeric class II beta chain (beta1 domain of DP, beta2 domain of DR) (human).
The target in experiment [2] is RP97 chimeric class II beta chain (beta1 domain of DR, beta2 domain of DP) (human).

In PMC2187783 one finds Table II, DPa Percent: percentage of cells binding the mAb SG465 and Table II, DRa Percent: percentage of cells binding the mAb SG465 data, which are given here for 2 substances.

Regarding “HLA-DP alpha chain (from UniProt P20036 29-260) (natural protein)”, the Table II, DPa Percent: percentage of cells binding the mAb SG465 was 22% in experiment [1] and 0% in experiment [2].

Regarding “HLA-DR alpha chain (from UniProt P01903 26-254) (natural protein)”, the Table II, DRa Percent: percentage of cells binding the mAb SG465 in experiment [1] worked out at 0%; in experiment [2], 54%.
